The target of one test is T1, His-tagged EGFR protein (Homo sapiens (species , human …, UniProt P00533)).
T1 construct: Epidermal growth factor receptor (EGFR); also called epidermal growth factor receptor; source: bought: Invitrogen
Briefly: ELISA; plates coated with anti-his antibody; His-tagged EGFR or ErbB3 captured in PBS with 1% BSA, 1 h RT; gradient-diluted antibodies or DVD-Ig proteins 1 h RT; detected with HRP-conjugated goat-anti-human antibodies. As to conditions: both partners purified. In general terms: In an ELISA, binding on a coated surface is turned into a signal by an enzyme label.

The next test has as its target T2, His-tagged ErbB3 protein (Homo sapiens (species , human …, UniProt P21860)).
T2 construct: Receptor tyrosine-protein kinase ErbB3; also called receptor tyrosine-protein kinase 3; source: bought: Invitrogen
The test is described as above. To be noted: both partners purified.

T2 sequence (P21860 20-643): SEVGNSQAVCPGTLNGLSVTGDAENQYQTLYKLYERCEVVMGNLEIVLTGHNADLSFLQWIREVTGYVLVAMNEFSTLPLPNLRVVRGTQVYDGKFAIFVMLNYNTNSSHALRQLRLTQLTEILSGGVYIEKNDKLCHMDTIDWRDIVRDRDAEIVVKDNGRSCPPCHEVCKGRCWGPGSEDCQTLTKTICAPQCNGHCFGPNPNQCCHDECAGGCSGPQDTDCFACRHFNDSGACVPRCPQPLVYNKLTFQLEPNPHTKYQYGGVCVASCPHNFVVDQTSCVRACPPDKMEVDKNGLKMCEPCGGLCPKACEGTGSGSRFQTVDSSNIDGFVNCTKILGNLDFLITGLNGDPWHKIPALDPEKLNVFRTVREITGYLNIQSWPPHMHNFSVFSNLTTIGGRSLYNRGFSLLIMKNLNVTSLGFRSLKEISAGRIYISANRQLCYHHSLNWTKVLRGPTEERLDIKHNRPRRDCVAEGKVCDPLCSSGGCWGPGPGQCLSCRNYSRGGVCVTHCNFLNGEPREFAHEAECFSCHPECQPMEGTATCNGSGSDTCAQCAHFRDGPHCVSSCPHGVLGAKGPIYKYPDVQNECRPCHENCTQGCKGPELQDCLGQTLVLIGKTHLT

B1: anti-EGFR/ErbB3 bispecific Ab (bsAb), generated from published MEHD7945A sequences (bispecific antibody, V domains shown)
VH: EVQLVESGGGLVQPGGSLRLSCAASGFTLSGDWIHWVRQAPGKGLEWVGEISAAGGYTDYADSVKGRFTISADTSKNTAYLQMNSLRAEDTAVYYCARESRVSFEAAMDYWGQGTLVTVSS
VL: DIQMTQSPSSLSASVGDRVTITCRASQNIATDVAWYQQKPGKAPKLLIYSASFLYSGVPSRFSGSGSGTDFTLTISSLQPEDFATYYCQQSEPEPYTFGQGTKVEIK
notes: also called anti-EGFR/ErbB3 bsAb; two-in-one antibody; source: human embryonic kidney 293 cells, transient, purified (protein A)
As a reminder, the EC50 is the midpoint of the concentration-response curve. Low values mean greater potency, high ones weaker potency. As to B1, the half-maximal effective concentration (EC50) is 1.3 nM with His-tagged EGFR protein and 5.7 nM with His-tagged ErbB3 protein.
